Assay [1] concerns the target glucose oxidase (GOD, E.C. 1.1.3.4, type VII, MW ≈ 160,000) (UniProt P13006). The assay can be described thus: quartz crystal microbalance (QCM); layer-by-layer adsorption on Au/MPS/PDDA-coated quartz resonator; alternate immersion in Con A (1 mg/mL, pH 7.0) and GOD (1 mg/mL, pH 7.0) for 20 min each, 0.1 M Tris-HCl with 0.1 M NaCl, 1 mM MnCl2, 1 mM CaCl2; washed, dried, frequency measured in air.

The target of assay [2] is concanavalin A extracted from Jack beans (Con A, type V, MW ≈ 104,000) (Jack bean). The assay is described as above.

In the case of “concanavalin A extracted from Jack beans (Con A, type V, MW ≈ 104,000) (natural protein)”, in assay [1], the average QCM frequency decrease for each layer is 82 Hz. Regarding “glucose oxidase (GOD, E.C. 1.1.3.4, type VII, MW ≈ 160,000) (from UniProt P13006 17-605) (enzyme)”, the average QCM frequency decrease for each layer in assay [2] was determined as 58 Hz.

The values are drawn from article PMC4851077.
